Experiments:
[1] = target: T1, LASV NP-C (catalytically active exoribonuclease domain) (Lassa virus, UniProt P13699 364-569); test: […], pH 5.5, room temperature; […]; conditions: protein: recombinant; blunt; self-complementary, 2 copies of one strand
[2] = target: T1, LASV NP-C (catalytically active …); test: X-ray crystallography, 1.68 A; […], pH 5.5, room temperature; […]; conditions: protein: recombinant; 5' overhang 4 nt on complementary strand

T1 sequence (P13699 364-569): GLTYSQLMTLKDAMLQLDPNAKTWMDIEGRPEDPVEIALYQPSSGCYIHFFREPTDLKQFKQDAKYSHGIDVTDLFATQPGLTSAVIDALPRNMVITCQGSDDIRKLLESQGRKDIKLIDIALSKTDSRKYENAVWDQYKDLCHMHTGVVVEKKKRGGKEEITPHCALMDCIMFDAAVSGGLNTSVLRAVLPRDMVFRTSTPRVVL

Binder | binding result [1] | binding result [2]
8-bp 5'-ppp dsRNA (input) (dsRNA, 5'-triphosphate) RNA 1: GGGCGCCC RNA 2: GGGCGCCC | binds | 
cleaved intermediate of the 5'-ppp dsRNA (4-nt cleaving strand, 8-nt complementary strand) (dsRNA, 5'-triphosphate) RNA 1: GGGC RNA 2: GGGCGCCC |  | binds

— publication PMC3675627, “Structures of Arenaviral Nucleoproteins with Triphosphate dsRNA Reveal a Unique Mechanism of Immune Suppression*”
